According to the NTF2 design screens of Basanta et al. (2020):

Assay: protease stability score; higher = more stable; yeast display proteolysis, trypsin and chymotrypsin;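 also: relative to predicted unfolded state with 0 unfolded-like and 1 meaning tenfold more protease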

| Sequence | protease stability score |
| --- | --- |
| DEVEHIVRWMVELLMRALQTGDEETLTRLMDPHARHEIDGKESHGREFLDTLKRRFKNIQWHSIEIEDYKHYDGRVEIHGILHVRVGDKRHEIHIEFVIQKIDGRWHVDRLHLK | 1.55 |
| SEEHEFWERLARLTLHWLETGDWDKMNKNADPNVRTEVNGQELHGRESTTEIMRRDEKFFKNARFHLESMDVQGDKVHLIFEVDYNGRTIRRHLDWVIINGRFKEIRVEIR | 1.17 |
| DEDHDIIREALERWRHYVHTGDWRSLLKMMDPHVRNDVDGVDIIGREEASRYYREVFERLGVDHIDIHLRDMQIQGDKVTVHSELELNYNGRRFMHDIEIISVKVDGRWSIRSVFSK | 1.41 |
| KEEEEFAKHILHMLRYLWETGDEEEFERMADPNARLIQGDKHFHGREEITKSVKELRVRHFEEKHIHYQGEKSLIIGHVDGEINGQRHEIDVIIRLEVVNGKLKRIRIEYR | 0.239 |
| HDREKLMEELVKNWIHLLKTGDEDQLHRLLDPHAKWDINGRELHGMEHINRRISEWRIEFNERHVEVIGEKIHIEGDLRVEIDGRRDEFHSEIELVIVNGRVKEIIVREG | 0.895 |
| DDEEKSRDIAIEIFVHLLRTGDEHEMSKLADPHVKVNINGRELVGMEIFIEWIRRWSKEIRLHDVKVKDVRTQGDKIEVDGREDGIQGDKRKEVETSFFFRKYNGKWFIERMEFR | 1.96 |
| SEEEKIMEELLRRIVNALQTGDEDFWSHLADPDTRFVLIQGEWSDEVHGRENALKFMEELKKRVPGMRIRVKDSRVQGEKLHVDGEIIYNGRSFDVEIRLRVVDGRIHEFQIIIR | 2.06 |
| DEKTEISEFALELFKESYDTGDEHTINRLADPHYRVVIGDKDLIGMEWLEHVIRHHKERVDHYRDVTVKDIKVIGNKVIADIRSHVHVDGQERDLDIDLVVFKINGRWRIKMIKID | 1.15 |
| SEEEKAIIDLFKLWIHAFVTGDEEKLSELMDPRVRLTVGDKHLHGMEIVVEWYRRLRDKIKNLQFRSFEIEDFRIVNGRVELEAVIHIHFNGQMRTIEVRFILEKVDGRWFLKSVEEK | 2.57 |
| DHEFEDSKRATEETLHLIETGNEEKIRQLADPHVRIIIFINGRDIHLHGREELSRHISEMGVDHRRWTELRLFEGHAENDVKVNFNGREFKVIIFVRKVNGRWVIERLEVHVI | 2.25 |
| SEEHKVAQHAIEIEEHVWHTGDERMLHELFDPDARLIINGQEFHGREELHRFREEMRITHMRTKEVRVQGDKMEIHVRVDVDINGKRTDIRVIIISRKVDGRWINTEIEFR | 0.734 |
| SEEEEEMRFFMEVWIHDLRTGDFESLHKNADPRTRVEINGVELHGREHFTEWAERIKGAKFEVKDFKIQGDKVILHGKFSVNGVEHEMTVIFLKVNGRWLQESMTLK | 0.603 |
| HDKEKEDKEWIKRLLDTIETGDPEQFSHLADPNVKAEFENHDSVGMEEVFKILEHLRIDHVRMKDMRIQGDWVHLITEMDGTINGKKIILKSRIIALKVNGRWVLTSTSLK | 1.42 |
| SEEEKWTEIAFTLWREVVETGDEHDVQEMADPNARYKQGDKEYHGREHLLEFMVKFFRHARVDDDDHKHVRTINGRVELQMRSEVTINGKLLITDVELIIVKVNGRWVVESLILG | 1.43 |
| SEMENLAREALRIIFHNVLTGDEEEFIRMADPNVRFDINGVEYHGWKRVLQELQRFKGLRIHHIHLEDMDNQGDKIIIYSKLEVHYNGVHTELTVEFISEKVNGRWILRMVVFH | 2.47 |
| SEEQDWLREALEIFEKTIHTGDEDTSKELADPHVRSIINGKDFVGMEIWTKILEELNKRYDHIELVFHKVENINGRVIIHGTDTIRVDGVERKIDTIIYARKVNGKWLSKSVEMR | 1.34 |
| KEHEEILHHLAELFFENLLTGDWRLLTELMDPSARVHIGEWRSHGREHASRVMLEEFRQLRVRDVKLTDLKVIDGRMEIDTRMRIEVDGREHIHTIHIRIYIYNGRMDEIHLEVR | 0.125 |
| SEDEHYVRHAIKLWMDSHLTGDEHTLTQLLDPNVRTDFNGREFHGREEASKWTKHLLERMGIKVSDVHLRRLDVQGDKAISHTELIIHFNGVDLSKEVHIDIMKVDGQWMIRDLTII | 0.613 |
| DEEEEEVKKVFEMLEKSLETGDEKLWEHMADPNTRIDIGDKEIHGRESFHEIVKHIRIKDIRMRIHEWRTYDGRLDLRGQVELHLNINGKHLDITVEHRLIIVKINGRWLLEEETIV | -0.109 |
| SEEEHISERAMELLSESIRTGNEHLISKLADPHTRMLYGDKELHGRSRWSEWASRVKNMRFETHEVRVVGDKIRSDVRSNFDGRLHIEHLYILKIDGRWVLDKIEIE | 0.246 |
| DEEERRDREWLHRMLHVHHTGDEEMFKRLADPHTLLRVDGKDVHGREEIAHFIRERGYRVEVHARHIEIINGRIDNETTVIVRINGRTIHEETHLHIRKINGKWILTHWHIE | 0.654 |
| SEDEKLFRLSIEIYLRVSRTGDEHMAHEYADPHVRLRIGDKEFHGREEFIKWVNELRVEELRLKEVRVIGDKAHLRTEVHTYIGDKEINYEMEIHQTKIDGKWFLREMKLK | 0.486 |
| SEDDDLIREFFEDWVKSVLTGDEDTIAKLADPHTRHEYGDKEHHGRDLVVEMLTFLYKHIRFEDVRLRHFDIQGNKIILHGKVEGKIDGRHRTFDVTIEVIKVNGQWLWHTIVIR | 1.89 |
| SETEETSRHLMEMFEKSMLTGDEEHYKRMADPNVRMHINGQEYVGWEDFTRILREIRTEEVRFKVKRYDLVGEYLHVDLRIERDTHVNGVKVEFRTEAELIVVKVDGRWIVKEVRIK | 1.27 |
| SEDEEKAERLSRKVVHDLLTGDFKSLLEMFDPNVRVNINGVNNHGRHFFWHELYDELRRLGVDKIEVDLRSLQVYGDKVVLEMELRVNGKKITVEIHMKKVDGRWHIKEVTHE | 1.04 |

| Sequence | protease stability score |
| --- | --- |
| SEEDELTRELVELWLHVFHTGDEEIMYKLADPNARVDVLIDGKRLDLVGREEIRRFLHEWHREAGFKHFDLHDIHFQGEKVHIDGREVYGDKFFRVIIHIHIVNGRIKSTKIEIR | 1.67 |
| DERDESLKNIFELLERILETGDEDDSSKLADPHTRMHWNGKELHGRELYADLFDRLLRELGVDHVRLKIHEVRIQGDKIRMDGTLHLIQGDKEERRRVHLVAHKINGRWHIKQVSIN | 1.26 |
| SEEDSKAMEMLDEWLKWLLTGNEHIFRTLADPHVRLTIGDKEHVGREHVIRMFHELRIDHFHVHDVRTQGDKAFMSGRMEGTVDGKKEDTDIRIFLVIVNGRIKHIELRIH | 1.52 |
| DENRELMERIARLVLHWLHTGDEHFIERLVDPHARVQQGDKEDHGMDRVVEMWNELRVHHVELRHLEVFENHATIHGEIDGEINGQRVRLDFHIHIHIVDGRMETIHVHFR | 2.1 |
| RDLDEIARHVIELWKETYETGDERHLRELLDPNMRVEVNGVESHGREEMMKHMVKYAREIRITEIIDRDTDSQGNKLHIHGEIIVEQGDKKHRYTLDVTFFVVDGRIKHLHFRSK | 1.2 |
| DEHEESAEWHSELMIRSMETGDEDLFEHLLDPRARFHINGQDIHGRDSISHFLSRRLKDMGFKHSSLKTVTIEVQGEWVYLRIKVILIVDGRHLDTEIIIISRKIDGVWHVHSMEIRFR | 1.34 |
| HDEERELTIVSERIIKIFETGDWEELHKMADPRVKVIVNGRETHGMERYVKHLEQIRTILTNIHLHDVDLQGDFLHIDLEARGRILVNGRDTTFNWELKITIDKFDGRWRMKRINVN | 2.16 |
| DESERMVLELARLFLEDLLTGNEDLMSHLADPHAKNDINGVDLHGMEVISKHLSELRLRVLDITEERVQGDKVRIKVEVVIQYGDKWRETEVDLELYIVNGRLKSQIWTIR | 1.08 |
| DEQEKEAKRVVEEILEILLTGDFESFLRNADPNVRIIIGDKDYWGREHTKRLLTDWRREMRVKHIDVRDIEVQGNKVKLHLESDLEINGRRTRTEMEIIVVTFNGRFESLEIRTV | 1.75 |
| DEDMKIASHVFHLIMHILHTGDEDSLKELADPDYRWLFNGVSNVGREESVRRLEEIRLEMKDTKTRSAKIYDGRIELHSHVRGNLNVNGVEIEHSVRSRLFVSKVDGKWLVEHIEIG | -0.045 |
| DDDEKDLEKLIREVMEIIWTGDEDTFRHFMDPNTRLFIDGKIIVGMEEIMRRWHELLRKFGVDKIEVRLDDFKIIGNKIELHFEIMIGDKRFKTQTIFEKIDGRWILHSRFIH | 2.01 |
| DEDNREIKHAIHLLLTAFLTGNEDWLKELADPNVRILFNGRLFHGREHFLKFLLKFLRDYGIDHNHIQHSHLEIQGNFVHTHLHLEIDVNGRRQEFELRVISEKINGRWHLRELEVHIR | 2.43 |
| SEEEKRADEFNRRWVHKMQTGDEESLHELIDPNAKLHFEGHDEVGMQRVSHTIVKFFLEIRVHYIHITDARVYDGRLELDTRVDGEFNGKRDTLKIELYVLKVNGVWLLKELRVS | 1 |
| TEEEEDLKEVLRVELETWHTGNWDEMRRLLDPHARLIFDGQTFHGRELAVKFFQELLTRFDVLHIIPQSVSVYNGRVEIHEEMHEVVDGQTIRRTYHVRSSKINGRWSVEVLVIQ | 0.443 |
| SELEHDARNAEHWFEETFRTGDEEDRERLLDPHVLVEFNGREYIGWHVFQKFFNDLGVDHMEVRIHDSKVFNGRVHLDGELTIRQGDKLIRSHVHLILTKVDGRWRMREIRIH | 1.73 |
| SEDEEHWRKTINLLIIAIRTGNEDLFWKLLDPNTRFEVDIGDKMIDLHGREKVAEWLHRFIHKIPNLKIHIREIEFNENETRIHGETHFDGKTRTVEIIIELVDGRMKEFIFIVK | 2.16 |
| SEEEKHLEHMARMMVEALMTGDEKLLNHLLDPNVRVEHSINGVEITDHGWHLYVKWVRDLGIDHIYFKDMHHQGNKTHLNIEIEINGKHIETRLLLVIVNGRIHIIKHEIK | 2.08 |
| DEEKKFIHYLAHLLIELILTGDEDTFEKLADPDVRLSIFAENHELHWHGREEVLRELIHWTRRVDHIHMKLDHSRIINGKSHMDGNLVDIQGDKKIEKKVTVILVVVNGKVKRIEIWIG | 1.47 |
| HEDEHLMKRVAELIFRLLVTGDEDRMRDLLDPTTRMDINGKEFHGRDQVIEVWRRLIDHIRIEEVHLEDHDIYGDKVRWHMRIRTRQGDKQLHLETRFTADKFNGRWELQTVIFK | 1.64 |
| SSEEEDIEWATEVLVMSFITGDWKLSHKLMDPNVLSIVNGREFHGRELAVKHLHEMTEKIKGLRIETHDLKHINIFNGRARVHSIVRGDINGRKVDSMIDVITNKFDGRWVIESVQFI | 1.45 |
| SEDEEMTKKMVEELNHNLLTGDEERLKKQADPNAKVHQGEYNLVGMDQFVRLIKEWRIHHVDMRDIRIFDGVAFIDFEEDIEIDGVRIQTRTHIIILKVNGRWRFKQWEMR | 0.862 |
| EEDKEDAKKAAEISSHSWETGDEDHLTKLFDPNVRITIGDKELHGMSLLHTFLREWGISNVDFRLHHIDVQGEKLKVDGILNVNGRHTKVTLHYEKINGKWVIKEIIII | 1.26 |
| SEDTATAHLMVEYFTKSVHTGDEHTTKRQVDPTMRFDFNGKQIIGREKWKEDLLHWRMETTSHVDDFKLQGDKVRSRTTLHMILHFDGVVYHNTYDTEIIYHKVDGRWYFTEFHVR | 1.14 |
| DEDEQKHREAAHLMLEMILTGDFEYFRHLLDPDVRLEINGKEIHGREEVYRHLLEWWQRIKNVRIKFKTMRIHIFDGVLFIHLDLEIEIGDKSIKTEILIVSIKIDGRWLLNSLHIHDR | 1.04 |
| SEDDELAHLFFELFLKLIQTGDEDKLLDLMDPNAKSEYNGVILHGREHKEHWRRRFKNIRVHYRHVEIHFQGNYLHIRIDGSLDINGQEIDSHVRLHTEKVNGKWIVRSMHFHYT | 1.25 |
